± gives the standard deviation of the averaged measurements.
Assays:
hTERT-HMEC = assay: percentage of EdU-negative (G0-arrested) nuclei per well, 72 h; higher = more G0 arrest; details: reference: sequence is the full UniProt precursor, the tested protein was the secreted form or ectodomain
MCF7 = assay: as above; details: reference: sequence is the full UniProt precursor, the tested protein was the secreted form or ectodomain
[1] = protein concentration 0.0225 µM
[2] = protein concentration 0.03125 µM
[3] = protein concentration 0.3125 µM
[4] = protein concentration 0.0322857 µM
[5] = protein concentration 0.0337143 µM
[6] = protein concentration 0.322857 µM
[7] = protein concentration 0.337143 µM
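Also: secreted proteins added to cultured cells, EdU pulse at the end, nuclei found by Hoechst imaging, EdU status from nuclear versus surrounding ring intensity ratio, PBS as neutral control.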

For “MLPGAWLLWTSLLLLARPAQPCPMGCDCFVQEVFCSDEELATVPLDIPPYTKNIIFVETSFTTLETRAFGSNPNLTKVVFLNTQLCQFRPDAFGGLPRLEDLEVTGSSFLNLSTNIFSNLTSLGKLTLNFNMLEALPEGLFQHLAALESLHLQGNQLQALPRRLFQPLTHLKTLNLAQNLLAQLPEELFHPLTSLQTLKLSNNALSGLPQGVFGKLGSLQELFLDSNNISELPPQVFSQLFCLERLWLQRNAITHLPLSIFASLGNLTFLSLQWNMLRVLPAGLFAHTPCLVGLSLTHNQLETVAEGTFAHLSNLRSLMLSYNAITHLPAGIFRDLEELVKLYLGSNNLTALHPALFQNLSKLELLSLSKNQLTTLPEGIFDTNYNLFNLALHGNPWQCDCHLAYLFNWLQQYTDRLLNIQTYCAGPAYLKGQVVPALNEKQLVCPVTRDHLGFQVTWPDESKAGGSWDLAVQERAARSQCTYSNPEGTVVLACDQAQCRWLNVQLSPQQGSLGLQYNASQEWDLRSSCGSLRLTVSIEARAAGP”, the “percentage of EdU-negative” value (hTERT-HMEC; protein concentration 0.016 µM) was 4.47 ± 0.7%, the “percentage of EdU-negative” value (hTERT-HMEC; protein concentration 0.16 µM) was 9.62 ± 2.1% and the “percentage of EdU-negative” value (MCF7; protein concentration 0.016 µM) was 25.6 ± 2.9%. For the same sequence, the “percentage of EdU-negative” value (MCF7; protein concentration 0.16 µM) was 31.1 ± 1.1%.
“MLPLLLLPLLWGGSLQEKPVYELQVQKSVTVQEGLCVLVPCSFSYPWRSWYSSPPLYVYWFRDGEIPYYAEVVATNNPDRRVKPETQGRFRLLGDVQKKNCSLSIGDARMEDTGSYFFRVERGRDVKYSYQQNKLNLEVTALIEKPDIHFLEPLESGRPTRLSCSLPGSCEAGPPLTFSWTGNALSPLDPETTRSSELTLTPRPEDHGTNLTCQMKRQGAQVTTERTVQLNVSYAPQTITIFRNGIALEILQNTSYLPVLEGQALRLLCDAPSNPPAHLSWFQGSPALNATPISNTGILELRRVRSAEEGGFTCRAQHPLGFLQIFLNLSVYSLPQLLGPSCSWEAEGLHCRCSFRARPAPSLCWRLEEKPLEGNSSQGSFKVNSSSAGPWANSSLILHGGLSSDLKVSCKAWNIYGSQSGSVLLLQGRSNLGTGVVPAALGGAGVMALLCICLCLIFFLIVKARRKQAAGRPEKMDDEDPIMGTITSGSRKKPWPDSPGDQASPPGDAPPLEEQKELHYASLSFSEMKSREPKDQEAPSTTEYSEIKTSK” was tested, and the “percentage of EdU-negative” value (hTERT-HMEC; [1]) was 5.12 ± 0.15%, the “percentage of EdU-negative” value (hTERT-HMEC; protein concentration 0.225 µM) was 5.64 ± 1% and the “percentage of EdU-negative” value (MCF7; [1]) was 25 ± 0.77%. The “percentage of EdU-negative” value (MCF7; protein concentration 0.225 µM) was 29.26 ± 0.077%.
In the case of “MLPLWTLSLLLGAVAGKEVCYERLGCFSDDSPWSGITERPLHILPWSPKDVNTRFLLYTNENPNNFQEVAADSSSISGSNFKTNRKTRFIIHGFIDKGEENWLANVCKNLFKVESVNCICVDWKGGSRTGYTQASQNIRIVGAEVAYFVEFLQSAFGYSPSNVHVIGHSLGAHAAGEAGRRTNGTIGRITGLDPAEPCFQGTPELVRLDPSDAKFVDVIHTDGAPIVPNLGFGMSQVVGHLDFFPNGGVEMPGCKKNILSQIVDIDGIWEGTRDFAACNHLRSYKYYTDSIVNPDGFAGFPCASYNVFTANKCFPCPSGGCPQMGHYADRYPGKTNDVGQKFYLDTGDASNFARWRYKVSVTLSGKKVTGHILVSLFGNKGNSKQYEIFKGTLKPDSTHSNEFDSDVDVGDLQMVKFIWYNNVINPTLPRVGASKIIVETNVGKQFNFCSPETVREEVLLTLTPC”, the “percentage of EdU-negative” value (hTERT-HMEC; [2]) is reported as 4.88 ± 0.32%, the “percentage of EdU-negative” value (hTERT-HMEC; [3]) is reported as 5.95 ± 0.29% and the “percentage of EdU-negative” value (MCF7; [2]) is reported as 22.6 ± 0.74%. For the same sequence, the “percentage of EdU-negative” value (MCF7; [3]) was 24.8 ± 1.1%.
For “MLPPMALPSVSWMLLSCLILLCQVQGEETQKELPSPRISCPKGSKAYGSPCYALFLSPKSWMDADLACQKRPSGKLVSVLSGAEGSFVSSLVRSISNSYSYIWIGLHDPTQGSEPDGDGWEWSSTDVMNYFAWEKNPSTILNPGHCGSLSRSTGFLKWKDYNCDAKLPYVCKFKD [Q6UW15]”, the “percentage of EdU-negative” value (hTERT-HMEC; [1]) was 4.59 ± 0.17%, the “percentage of EdU-negative” value (hTERT-HMEC; protein concentration 0.225 µM) was 5.21 ± 0.13% and the “percentage of EdU-negative” value (MCF7; [1]) was 25.43 ± 0.028%. For the same sequence, the “percentage of EdU-negative” value (MCF7; protein concentration 0.225 µM) was 26.8 ± 1.6%.
“MLPPMALPSVSWMLLSCLMLLSQVQGEEPQRELPSARIRCPKGSKAYGSHCYALFLSPKSWTDADLACQKRPSGNLVSVLSGAEGSFVSSLVKSIGNSYSYVWIGLHDPTQGTEPNGEGWEWSSSDVMNYFAWERNPSTISSPGHCASLSRSTAFLRWKDYNCNVRLPYVCKFTD” was tested, and the “percentage of EdU-negative” value (hTERT-HMEC; [4]) was 5.46 ± 0.53%, the “percentage of EdU-negative” value (hTERT-HMEC; [5]) was 5.04 ± 0.18% and the “percentage of EdU-negative” value (hTERT-HMEC; [6]) was 7.94 ± 0.33%. For the same sequence, the “percentage of EdU-negative” value (hTERT-HMEC; [7]) was 6.63 ± 1.3%, the “percentage of EdU-negative” value (MCF7; [4]) was 24.2 ± 2.7% and the “percentage of EdU-negative” value (MCF7; [5]) was 24.3 ± 1.6%. For the same sequence, the “percentage of EdU-negative” value (MCF7; [6]) was 26.7 ± 1.1% and the “percentage of EdU-negative” value (MCF7; [7]) was 27.4 ± 2.9%.
“MLPPPRPAAALALPVLLLLLVVLTPPPTGARPSPGPDYLRRGWMRLLAEGEGCAPCRPEECAAPRGCLAGRVRDACGCCWECANLEGQLCDLDPSAHFYGHCGEQLECRLDTGGDLSRGEVPEPLCACRSQSPLCGSDGHTYSQICRLQEAARARPDANLTVAHPGPCESGPQIVSHPYDTWNVTGQDVIFGCEVFAYPMASIEWRKDGLDIQLPGDDPHISVQFRGGPQRFEVTGWLQIQAVRPSDEGTYRCLGRNALGQVEAPASLTVLTPDQLNSTGIPQLRSLNLVPEEEAESEENDDYY [Q96I82]” was tested, and the “percentage of EdU-negative” value (hTERT-HMEC; [1]) was 5.43 ± 0.24%, the “percentage of EdU-negative” value (hTERT-HMEC; protein concentration 0.225 µM) was 5.18 ± 0.4% and the “percentage of EdU-negative” value (MCF7; [1]) was 25.7 ± 0.96%. The “percentage of EdU-negative” value (MCF7; protein concentration 0.225 µM) was 28.1 ± 2.9%.
